One block for each substance: values may come before it.
Columns and labels:
[1] = target: chimeric V2R harboring the carboxy-terminal tail of the β2-adrenergic receptor
[2] = target: vasopressin type 2 receptor (UniProt P30518)
[3] = target: vasopressin type 2 receptor (UniProt P30518); remark: listed apart in the source

AVP-mediated maximal efficacy of Rluc-mGs recruitment to early endosomes (EbBRET with rGFP-Rab5), AVP dose-response, 45 min, cells expressing V2β2AR [1]: 0.15 ΔEbBRET
AVP-mediated maximal efficacy of Rluc-mGs recruitment to the plasma membrane (EbBRET with rGFP-CAAX), AVP dose-response, 10 min, cells expressing V2β2AR [1]: 0.392 ΔEbBRET
Potency of AVP (logEC50) for Rluc-mGs recruitment to early endosomes (EbBRET with rGFP-Rab5), 45 min, cells expressing V2β2AR [1]: -8.34 logEC50
Potency of AVP (logEC50) for Rluc-mGs recruitment to the plasma membrane (EbBRET with rGFP-CAAX), 10 min, cells expressing V2β2AR [1]: -8.07 logEC50
Transduction coefficient log(τ/Ka) of Rluc-mGs recruitment to early endosomes (EbBRET with rGFP-Rab5), cells expressing V2β2AR [1]: 8.31 log(τ/Ka)
Transduction coefficient log(τ/Ka) of Rluc-mGs recruitment to the plasma membrane (EbBRET with rGFP-CAAX), cells expressing V2β2AR [1]: 8.04 log(τ/Ka)
AVP-mediated maximal efficacy of Rluc-mGs recruitment to early endosomes (EbBRET with rGFP-Rab5), AVP dose-response, 45 min, cells expressing V2R [2]: 0.167 ΔEbBRET
AVP-mediated maximal efficacy of Rluc-mGs recruitment to the plasma membrane (EbBRET with rGFP-CAAX), AVP dose-response, 10 min, cells expressing V2R [2]: 0.3 ΔEbBRET
Potency of AVP (logEC50) for Rluc-mGs recruitment to early endosomes (EbBRET with rGFP-Rab5), 45 min, cells expressing V2R [2]: -8.65 logEC50
Potency of AVP (logEC50) for Rluc-mGs recruitment to the plasma membrane (EbBRET with rGFP-CAAX), 10 min, cells expressing V2R [2]: -8.07 logEC50
Transduction coefficient log(τ/Ka) of Rluc-mGs recruitment to early endosomes (EbBRET with rGFP-Rab5), cells expressing V2R [2]: 8.63 log(τ/Ka)
Transduction coefficient log(τ/Ka) of Rluc-mGs recruitment to the plasma membrane (EbBRET with rGFP-CAAX), cells expressing V2R [2]: 7.98 log(τ/Ka)
AVP-induced maximal efficacy of Rluc-mGs recruitment to early endosomes (EbBRET with rGFP-Rab5), AVP dose-response, 45 min, parental HEK293 cells [3]: 0.18 ΔEbBRET
AVP-induced maximal efficacy of Rluc-mGs recruitment to early endosomes (EbBRET with rGFP-Rab5), AVP dose-response, 45 min, Δβarr1/2 HEK293 cells [3]: 0.074 ΔEbBRET
AVP-induced maximal efficacy of Rluc-mGs recruitment to the plasma membrane (EbBRET with rGFP-CAAX), AVP dose-response, 10 min, parental HEK293 cells [3]: 0.324 ΔEbBRET
AVP-induced maximal efficacy of Rluc-mGs recruitment to the plasma membrane (EbBRET with rGFP-CAAX), AVP dose-response, 10 min, Δβarr1/2 HEK293 cells [3]: 0.376 ΔEbBRET
Potency of AVP (LogEC50) for Rluc-mGs recruitment to early endosomes (EbBRET with rGFP-Rab5), 45 min, parental HEK293 cells [3]: -8.37 LogEC50
Potency of AVP (LogEC50) for Rluc-mGs recruitment to early endosomes (EbBRET with rGFP-Rab5), 45 min, Δβarr1/2 HEK293 cells [3]: -8.34 LogEC50
Potency of AVP (LogEC50) for Rluc-mGs recruitment to the plasma membrane (EbBRET with rGFP-CAAX), 10 min, parental HEK293 cells [3]: -7.9 LogEC50
Potency of AVP (LogEC50) for Rluc-mGs recruitment to the plasma membrane (EbBRET with rGFP-CAAX), 10 min, Δβarr1/2 HEK293 cells [3]: -7.99 LogEC50
Substance: mini G protein mGs

AVP-mediated maximal efficacy of Rluc-mGsq recruitment to early endosomes (EbBRET with rGFP-Rab5), AVP dose-response, 45 min, cells expressing V2β2AR [1]: 0.061 ΔEbBRET
AVP-mediated maximal efficacy of Rluc-mGsq recruitment to the plasma membrane (EbBRET with rGFP-CAAX), AVP dose-response, 10 min, cells expressing V2β2AR [1]: 0.183 ΔEbBRET
Potency of AVP (logEC50) for Rluc-mGsq recruitment to early endosomes (EbBRET with rGFP-Rab5), 45 min, cells expressing V2β2AR [1]: -7.82 logEC50
Potency of AVP (logEC50) for Rluc-mGsq recruitment to the plasma membrane (EbBRET with rGFP-CAAX), 10 min, cells expressing V2β2AR [1]: -7.97 logEC50
Transduction coefficient log(τ/Ka) of Rluc-mGsq recruitment to early endosomes (EbBRET with rGFP-Rab5), cells expressing V2β2AR [1]: 7.91 log(τ/Ka)
Transduction coefficient log(τ/Ka) of Rluc-mGsq recruitment to the plasma membrane (EbBRET with rGFP-CAAX), cells expressing V2β2AR [1]: 7.99 log(τ/Ka)
AVP-mediated maximal efficacy of Rluc-mGsq recruitment to early endosomes (EbBRET with rGFP-Rab5), AVP dose-response, 45 min, cells expressing V2R [2]: 0.05 ΔEbBRET
AVP-mediated maximal efficacy of Rluc-mGsq recruitment to the plasma membrane (EbBRET with rGFP-CAAX), AVP dose-response, 10 min, cells expressing V2R [2]: 0.161 ΔEbBRET
Potency of AVP (logEC50) for Rluc-mGsq recruitment to early endosomes (EbBRET with rGFP-Rab5), 45 min, cells expressing V2R [2]: -8.44 logEC50
Potency of AVP (logEC50) for Rluc-mGsq recruitment to the plasma membrane (EbBRET with rGFP-CAAX), 10 min, cells expressing V2R [2]: -7.88 logEC50
Transduction coefficient log(τ/Ka) of Rluc-mGsq recruitment to early endosomes (EbBRET with rGFP-Rab5), cells expressing V2R [2]: 8.31 log(τ/Ka)
Transduction coefficient log(τ/Ka) of Rluc-mGsq recruitment to the plasma membrane (EbBRET with rGFP-CAAX), cells expressing V2R [2]: 7.9 log(τ/Ka)
AVP-induced maximal efficacy of Rluc-mGsq recruitment to early endosomes (EbBRET with rGFP-Rab5), AVP dose-response, 45 min, parental HEK293 cells [3]: 0.05 ΔEbBRET
AVP-induced maximal efficacy of Rluc-mGsq recruitment to early endosomes (EbBRET with rGFP-Rab5), AVP dose-response, 45 min, Δβarr1/2 HEK293 cells [3]: 0.024 ΔEbBRET
AVP-induced maximal efficacy of Rluc-mGsq recruitment to the plasma membrane (EbBRET with rGFP-CAAX), AVP dose-response, 10 min, parental HEK293 cells [3]: 0.168 ΔEbBRET
AVP-induced maximal efficacy of Rluc-mGsq recruitment to the plasma membrane (EbBRET with rGFP-CAAX), AVP dose-response, 10 min, Δβarr1/2 HEK293 cells [3]: 0.18 ΔEbBRET
Potency of AVP (LogEC50) for Rluc-mGsq recruitment to early endosomes (EbBRET with rGFP-Rab5), 45 min, parental HEK293 cells [3]: -8.38 LogEC50
Potency of AVP (LogEC50) for Rluc-mGsq recruitment to early endosomes (EbBRET with rGFP-Rab5), 45 min, Δβarr1/2 HEK293 cells [3]: -8.32 LogEC50
Potency of AVP (LogEC50) for Rluc-mGsq recruitment to the plasma membrane (EbBRET with rGFP-CAAX), 10 min, parental HEK293 cells [3]: -7.81 LogEC50
Potency of AVP (LogEC50) for Rluc-mGsq recruitment to the plasma membrane (EbBRET with rGFP-CAAX), 10 min, Δβarr1/2 HEK293 cells [3]: -7.95 LogEC50
Substance: mini G protein mGsq
